According to patent US20240301041A1:

What was measured:
[1] = biological target: IgG binding protein (Protein A homolog SpsQ/SpsP) on S. intermedius 27369 (Staphylococcus intermedius); assay: ELISA, coated S. intermedius 27369, antibody 1.18E-12 M
[2] = biological target: IgG binding protein (Protein A homolog SpsQ/SpsP) on S. pseudintermedius AHDRCC 98200 (Staphylococcus pseudintermedius); assay: ELISA, coated S. pseudintermedius 98200, antibody 4.82E-09 M
[3] = biological target: IgG binding protein (Protein A homolog SpsQ/SpsP) on S. pseudintermedius AHDRCC 98200 (Staphylococcus pseudintermedius); assay: ELISA, coated S. pseudintermedius 98200, antibody 6.03E-10 M
[4] = biological target: Protein A on the surface of S. aureus Newman wild-type (Staphylococcus aureus (strain Newman)) (UniProt P38507); assay: ELISA, coated S. aureus Newman, antibody 7.54E-11 M
[5] = biological target: IgG binding protein (Protein A homolog SpsQ/SpsP) on S. intermedius 27369 (Staphylococcus intermedius); assay: ELISA, coated S. intermedius 27369, antibody 7.54E-11 M
[6] = biological target: IgG binding protein (Protein A homolog SpsQ/SpsP) on MRSP S. pseudintermedius 88493 (Staphylococcus pseudintermedius); assay: ELISA, coated S. pseudintermedius 88493, antibody 3.86E-08 M
[7] = biological target: Protein A on the surface of S. aureus Newman wild-type (Staphylococcus aureus (strain Newman)) (UniProt P38507); assay: ELISA, coated S. aureus Newman, antibody 6.03E-10 M
[8] = biological target: IgG binding protein (Protein A homolog SpsQ/SpsP) on S. intermedius 27369 (Staphylococcus intermedius); assay: ELISA, coated S. intermedius 27369, antibody 1.47E-13 M
[9] = biological target: Protein A on the surface of S. aureus Newman wild-type (Staphylococcus aureus (strain Newman)) (UniProt P38507); assay: ELISA, coated S. aureus Newman, antibody 1.47E-13 M
[10] = biological target: IgG binding protein (Protein A homolog SpsQ/SpsP) on MRSP S. pseudintermedius 88493 (Staphylococcus pseudintermedius); assay: ELISA, coated S. pseudintermedius 88493, antibody 1.47E-13 M
[11] = biological target: IgG binding protein (Protein A homolog SpsQ/SpsP) on S. intermedius 27369 (Staphylococcus intermedius); assay: ELISA, coated S. intermedius 27369, antibody 3.09E-07 M
[12] = biological target: Protein A on the surface of S. aureus Newman wild-type (Staphylococcus aureus (strain Newman)) (UniProt P38507); assay: ELISA, coated S. aureus Newman, antibody 1.18E-12 M
[13] = biological target: IgG binding protein (Protein A homolog SpsQ/SpsP) on MRSP S. pseudintermedius 88493 (Staphylococcus pseudintermedius); assay: ELISA, coated S. pseudintermedius 88493, antibody 7.54E-11 M
[14] = biological target: IgG binding protein (Protein A homolog SpsQ/SpsP) on S. intermedius 27369 (Staphylococcus intermedius); assay: ELISA, coated S. intermedius 27369, antibody 3.86E-08 M
[15] = biological target: IgG binding protein (Protein A homolog SpsQ/SpsP) on S. intermedius 27369 (Staphylococcus intermedius); assay: ELISA, coated S. intermedius 27369, antibody 4.82E-09 M
[16] = biological target: Protein A on the surface of S. aureus Newman wild-type (Staphylococcus aureus (strain Newman)) (UniProt P38507); assay: ELISA, coated S. aureus Newman, antibody 3.09E-07 M
[17] = biological target: IgG binding protein (Protein A homolog SpsQ/SpsP) on S. pseudintermedius AHDRCC 98200 (Staphylococcus pseudintermedius); assay: ELISA, coated S. pseudintermedius 98200, antibody 1.18E-12 M
[18] = biological target: IgG binding protein (Protein A homolog SpsQ/SpsP) on MRSP S. pseudintermedius 88493 (Staphylococcus pseudintermedius); assay: ELISA, coated S. pseudintermedius 88493, antibody 4.82E-09 M
[19] = biological target: Protein A on the surface of S. aureus Newman wild-type (Staphylococcus aureus (strain Newman)) (UniProt P38507); assay: ELISA, coated S. aureus Newman, antibody 4.82E-09 M
[20] = biological target: IgG binding protein (Protein A homolog SpsQ/SpsP) on S. intermedius 27369 (Staphylococcus intermedius); assay: ELISA, coated S. intermedius 27369, antibody 6.03E-10 M
[21] = biological target: Protein A on the surface of S. aureus Newman wild-type (Staphylococcus aureus (strain Newman)) (UniProt P38507); assay: ELISA, coated S. aureus Newman, antibody 9.42E-12 M
[22] = biological target: IgG binding protein (Protein A homolog SpsQ/SpsP) on S. pseudintermedius AHDRCC 98200 (Staphylococcus pseudintermedius); assay: ELISA, coated S. pseudintermedius 98200, antibody 3.86E-08 M
[23] = biological target: IgG binding protein (Protein A homolog SpsQ/SpsP) on S. pseudintermedius AHDRCC 98200 (Staphylococcus pseudintermedius); assay: ELISA, coated S. pseudintermedius 98200, antibody 3.09E-07 M
[24] = biological target: IgG binding protein (Protein A homolog SpsQ/SpsP) on S. intermedius 27369 (Staphylococcus intermedius); assay: ELISA, coated S. intermedius 27369, antibody 9.42E-12 M
[25] = biological target: IgG binding protein (Protein A homolog SpsQ/SpsP) on MRSP S. pseudintermedius 88493 (Staphylococcus pseudintermedius); assay: ELISA, coated S. pseudintermedius 88493, antibody 9.42E-12 M
[26] = biological target: IgG binding protein (Protein A homolog SpsQ/SpsP) on S. pseudintermedius AHDRCC 98200 (Staphylococcus pseudintermedius); assay: ELISA, coated S. pseudintermedius 98200, antibody 1.47E-13 M
[27] = biological target: IgG binding protein (Protein A homolog SpsQ/SpsP) on MRSP S. pseudintermedius 88493 (Staphylococcus pseudintermedius); assay: ELISA, coated S. pseudintermedius 88493, antibody 3.09E-07 M
[28] = biological target: IgG binding protein (Protein A homolog SpsQ/SpsP) on S. pseudintermedius AHDRCC 98200 (Staphylococcus pseudintermedius); assay: ELISA, coated S. pseudintermedius 98200, antibody 9.42E-12 M
[29] = biological target: IgG binding protein (Protein A homolog SpsQ/SpsP) on S. pseudintermedius AHDRCC 98200 (Staphylococcus pseudintermedius); assay: ELISA, coated S. pseudintermedius 98200, antibody 7.54E-11 M
[30] = biological target: Protein A on the surface of S. aureus Newman wild-type (Staphylococcus aureus (strain Newman)) (UniProt P38507); assay: ELISA, coated S. aureus Newman, antibody 3.86E-08 M
[31] = biological target: IgG binding protein (Protein A homolog SpsQ/SpsP) on MRSP S. pseudintermedius 88493 (Staphylococcus pseudintermedius); assay: ELISA, coated S. pseudintermedius 88493, antibody 6.03E-10 M
[32] = biological target: IgG binding protein (Protein A homolog SpsQ/SpsP) on MRSP S. pseudintermedius 88493 (Staphylococcus pseudintermedius); assay: ELISA, coated S. pseudintermedius 88493, antibody 1.18E-12 M
[33] = biological target: Protein A on the surface of S. aureus Newman wild-type (Staphylococcus aureus (strain Newman)) (UniProt P38507); assay: cell-based or functional assay
[34] = biological target: IgG binding protein (Protein A homolog SpsQ/SpsP) on S. intermedius 27369 (Staphylococcus intermedius); assay: cell-based or functional assay
[35] = biological target: IgG binding protein (Protein A homolog SpsQ/SpsP) on S. pseudintermedius AHDRCC 98200 (Staphylococcus pseudintermedius); assay: cell-based or functional assay

Substance	ELISA luminescent signal [1]	ELISA luminescent signal [2]	ELISA luminescent signal [3]	ELISA luminescent signal [4]	ELISA luminescent signal [5]	ELISA luminescent signal [6]	ELISA luminescent signal [7]	ELISA luminescent signal [8]	ELISA luminescent signal [9]	ELISA luminescent signal [10]	ELISA luminescent signal [11]	ELISA luminescent signal [12]	ELISA luminescent signal [13]	ELISA luminescent signal [14]	ELISA luminescent signal [15]	ELISA luminescent signal [16]	ELISA luminescent signal [17]	ELISA luminescent signal [18]	ELISA luminescent signal [19]	ELISA luminescent signal [20]	also measured
hIgG1 control (REGN1932) (antibody)	9740	8040	4770	253000	2680	14500	509000	25300	18600	8190	123000	30200	7560	34800	42100	506000	2830	8950	652000	5300	ELISA luminescent signal [21]: 72500; ELISA luminescent signal [22]: 36400; ELISA luminescent signal [23]: 132000; ELISA luminescent signal [24]: 1610; ELISA luminescent signal [25]: 7980; ELISA luminescent signal [26]: 1480; ELISA luminescent signal [27]: 43900; ELISA luminescent signal [28]: 1460; ELISA luminescent signal [29]: 2590; ELISA luminescent signal [30]: 434000; ELISA luminescent signal [31]: 11000; ELISA luminescent signal [32]: 8920
hIgG1*/* control (REGN4440) (antibody)	2210	2410	2760	24400	2510	6470	27500	896	15500	12300	11100	17100	6370	3850	2490	38800	2170	7360	19400	3010	ELISA luminescent signal [21]: 16700; ELISA luminescent signal [22]: 5100; ELISA luminescent signal [23]: 15200; ELISA luminescent signal [24]: 775; ELISA luminescent signal [25]: 6150; ELISA luminescent signal [26]: 1120; ELISA luminescent signal [27]: 14700; ELISA luminescent signal [28]: 1170; ELISA luminescent signal [29]: 2240; ELISA luminescent signal [30]: 27600; ELISA luminescent signal [31]: 7080; ELISA luminescent signal [32]: 6710; median cfu/mL after 16 h in 50% normal human serum, mAb 270 ug/mL [33]: 7e+06 cfu/mL; median cfu/mL after 16 h in 50% normal human serum, mAb 270 ug/mL [34]: 8e+06 cfu/mL; median cfu/mL after 16 h in 50% normal human serum, mAb 270 ug/mL [35]: 7.5e+06 cfu/mL
